{"source": "paper PMC6803476", "about": "“Nanodomain Clustering of the Plant Protein Remorin by Solid-State NMR” (Frontiers in Molecular Biosciences, 2019)", "target": "the molecule itself", "assay": "negative staining electron microscopy; purified protein incubated overnight at 30°C with preformed liposomes (protein/lipid 1/20; DMPC-d54/β-sitosterol 85/15 or DMPC-d54/β-sitosterol/PIP mix 75/15/10), 2% uranyl acetate stain; filaments mostly in samples without PIPs, very few with PIPs", "data": [{"protein": "REM_(86-198), truncated StREM1.3 bearing only the coiled-coil domain and RemCA (domain or fragment, Solanum tuberosum (potato), UniProt P93788 86-198, looked up, Remorin group 1 isoform 3 (StREM1.3) of potato (Solanum tuberosum), residues 86-198: coiled-coil segment and the C-terminal membrane anchor RemCA; source: E. coli BL21-DE3 (pET24 vector), purified as described in Martinez et al. (2018), HiPrep gel filtration buffer exchange) TEKRVSLIKAWEESEKSKAENKAQKKVSAIGAWENSKKANLEAELKKMEEQLEKKKAEYTEKMKNKIALLHKEAEEKRAMIEAKRGEDLLKAEELAAKYRATGTAPKKILGIF", "values": [{"measurement": "binding result", "result": "binds"}]}]}
